Consider 38 molecules from patent US20080058636A1, “METHODS OF MYOCARDIAL IMAGING” (Epix Pharmaceuticals, Inc., priority 2005, published 2008).

Bridge positions count the residues as written; N and C are the ends. Square brackets hold non-standard residues; d marks the D form. Ends that are not written are not given here.

B1: SEQ ID NO: 171 (peptide)
chain: GQWTCSGDE[dY]TWHCNYE
modifications: disulfide 5-14 (inferred); not fully specified (C-terminus); printed as Q W T C S G D E y T W H C N Y E
B2: SEQ ID NO: 176 (peptide)
chain: GQWTCSGDEYTWHC[dN]YE
modifications: disulfide 5-14 (inferred); not fully specified (C-terminus); printed as Q W T C S G D E Y T W H C n Y E
B3: SEQ ID NO: 178 (peptide)
chain: GQWTCSGDEYTWHCNY[dE]
modifications: disulfide 5-14 (inferred); not fully specified (C-terminus); printed as Q W T C S G D E Y T W H C N Y e
B4: SEQ ID NO: 174 (peptide)
chain: GQWTCSGDEYTW[dH]CNYE
modifications: disulfide 5-14 (inferred); not fully specified (C-terminus); printed as Q W T C S G D E Y T W h C N Y E
B5: SEQ ID NO: 172 (peptide)
chain: GQWTCSGDEY[dT]WHCNYE
modifications: disulfide 5-14 (inferred); not fully specified (C-terminus); printed as Q W T C S G D E Y t W H C N Y E
B6: SEQ ID NO: 173 (peptide)
chain: GQWTCSGDEYT[dW]HCNYE
modifications: disulfide 5-14 (inferred); not fully specified (C-terminus); printed as Q W T C S G D E Y T w H C N Y E
B7: SEQ ID NO: 177 (peptide)
chain: GQWTCSGDEYTWHCN[dY]E
modifications: disulfide 5-14 (inferred); not fully specified (C-terminus); printed as Q W T C S G D E Y T W H C N y E
B8: SEQ ID NO: 175 (peptide)
chain: GQWTCSGDEYTWH[dC]NYE
modifications: disulfide 5-14 (inferred); not fully specified (C-terminus); printed as Q W T C S G D E Y T W H c N Y E

Sequence of rat collagen (acid soluble, type I, rat tail, Upstate 08-115) (rat) (P02454 152-1207, chain 1 of 2): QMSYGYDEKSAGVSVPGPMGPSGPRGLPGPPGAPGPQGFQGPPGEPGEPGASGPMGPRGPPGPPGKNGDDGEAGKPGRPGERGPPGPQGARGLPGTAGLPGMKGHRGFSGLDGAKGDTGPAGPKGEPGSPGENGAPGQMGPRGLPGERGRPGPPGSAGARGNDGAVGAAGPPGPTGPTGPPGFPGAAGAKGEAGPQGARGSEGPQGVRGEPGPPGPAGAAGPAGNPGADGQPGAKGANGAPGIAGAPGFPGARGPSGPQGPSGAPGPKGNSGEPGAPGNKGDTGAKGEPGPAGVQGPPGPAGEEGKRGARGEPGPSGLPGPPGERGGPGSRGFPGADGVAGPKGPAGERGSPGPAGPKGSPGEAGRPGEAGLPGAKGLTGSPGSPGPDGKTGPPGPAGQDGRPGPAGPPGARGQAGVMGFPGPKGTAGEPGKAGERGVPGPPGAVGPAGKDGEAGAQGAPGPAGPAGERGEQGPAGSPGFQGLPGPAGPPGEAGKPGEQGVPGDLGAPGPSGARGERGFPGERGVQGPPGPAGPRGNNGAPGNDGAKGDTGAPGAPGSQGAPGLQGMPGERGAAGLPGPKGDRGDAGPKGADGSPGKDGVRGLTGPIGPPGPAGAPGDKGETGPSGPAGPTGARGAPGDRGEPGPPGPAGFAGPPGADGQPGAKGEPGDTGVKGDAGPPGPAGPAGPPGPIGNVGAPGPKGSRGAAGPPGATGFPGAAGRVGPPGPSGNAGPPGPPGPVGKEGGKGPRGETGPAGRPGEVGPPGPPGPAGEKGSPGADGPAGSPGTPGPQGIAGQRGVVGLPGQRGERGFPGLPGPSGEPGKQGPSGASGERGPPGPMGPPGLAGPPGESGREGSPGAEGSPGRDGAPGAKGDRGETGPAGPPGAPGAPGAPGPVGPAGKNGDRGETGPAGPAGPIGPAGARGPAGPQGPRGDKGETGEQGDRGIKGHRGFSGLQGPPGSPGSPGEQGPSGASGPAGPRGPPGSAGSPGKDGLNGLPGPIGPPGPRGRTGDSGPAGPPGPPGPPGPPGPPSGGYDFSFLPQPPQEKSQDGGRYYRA
Sequence of rat collagen (acid soluble, type I, rat tail, Upstate 08-115) (rat) (P02466 86-1125, chain 2 of 2, further chain): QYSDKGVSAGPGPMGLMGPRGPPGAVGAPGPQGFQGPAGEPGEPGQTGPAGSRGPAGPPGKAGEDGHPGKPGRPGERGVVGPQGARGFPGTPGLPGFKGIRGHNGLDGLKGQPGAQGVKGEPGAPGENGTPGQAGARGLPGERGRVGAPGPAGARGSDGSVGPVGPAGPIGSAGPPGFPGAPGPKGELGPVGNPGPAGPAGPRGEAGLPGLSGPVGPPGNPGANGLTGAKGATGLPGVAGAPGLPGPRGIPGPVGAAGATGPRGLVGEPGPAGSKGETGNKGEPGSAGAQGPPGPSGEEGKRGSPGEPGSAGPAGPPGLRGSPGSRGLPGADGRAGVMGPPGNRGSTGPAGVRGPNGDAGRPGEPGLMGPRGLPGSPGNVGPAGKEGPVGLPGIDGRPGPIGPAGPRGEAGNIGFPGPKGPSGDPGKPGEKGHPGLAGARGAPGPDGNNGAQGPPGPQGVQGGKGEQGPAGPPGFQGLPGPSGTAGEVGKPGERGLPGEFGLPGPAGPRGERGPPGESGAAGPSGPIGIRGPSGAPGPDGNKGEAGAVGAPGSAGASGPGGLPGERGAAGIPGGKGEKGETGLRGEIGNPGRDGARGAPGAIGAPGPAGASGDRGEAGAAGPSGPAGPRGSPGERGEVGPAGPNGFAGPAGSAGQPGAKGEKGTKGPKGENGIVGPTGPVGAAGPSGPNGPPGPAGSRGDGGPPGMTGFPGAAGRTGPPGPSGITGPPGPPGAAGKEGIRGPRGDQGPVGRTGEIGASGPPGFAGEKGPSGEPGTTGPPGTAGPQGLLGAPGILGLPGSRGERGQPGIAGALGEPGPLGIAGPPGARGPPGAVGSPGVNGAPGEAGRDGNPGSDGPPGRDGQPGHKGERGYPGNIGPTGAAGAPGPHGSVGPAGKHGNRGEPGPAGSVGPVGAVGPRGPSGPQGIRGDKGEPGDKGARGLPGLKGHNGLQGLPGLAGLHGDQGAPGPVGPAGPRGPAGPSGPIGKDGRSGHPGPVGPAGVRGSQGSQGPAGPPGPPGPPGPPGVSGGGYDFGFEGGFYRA

One experiment addresses rat collagen (acid soluble, type I, rat tail, Upstate 08-115) (rat) (UniProt P02454). Kind of experiment: dried collagen assay.
For the molecule PWTCSGDEYAWHCNYE [SEQ ID NO: 121], the % Collagen Binding amounted to 72%.

Molecule GQ[dW]TCSGDEYTWHCNYE (disulfide 5-14 (inferred)) [SEQ ID NO: 165] gave a % Collagen Binding of 4%.

G[dQ]WTCSGDEYTWHCNYE (disulfide 5-14 (inferred)) [SEQ ID NO: 164] showed a % Collagen Binding of 31%.

The molecule GQWT[dC]SGDEYTWHCNYE (disulfide 5-14 (inferred)) [SEQ ID NO: 167] showed a % Collagen Binding of 0%.

Regarding B1, the % Collagen Binding worked out at 6%.

As for DWTCSGDEYAWHCNYE [SEQ ID NO: 120], the % Collagen Binding stood at 28%.

Regarding B2, the % Collagen Binding is 2%.

For GQWTCSGDEYAWHCNY[dE] (disulfide 5-14 (inferred)) [SEQ ID NO: 126], the % Collagen Binding worked out at 73%.

GQWTCSGDEYSWHCNY[dE] (disulfide 5-14 (inferred)) [SEQ ID NO: 125] displayed a % Collagen Binding of 86%.

Turning to DWTCSADEYTWHCNYE [SEQ ID NO: 179], the % Collagen Binding was 75%.

In turn, B3 returned a % Collagen Binding of 87%.

YHACYQAGCWAW (disulfide 4-9; not fully specified) [SEQ ID NO: 137] returned a % Collagen Binding of 7%.

GQWTCSGDEY[dA]WHCNA[dE] (disulfide 5-14 (inferred)) [SEQ ID NO: 124] returned a % Collagen Binding of 17%.

Consider B4, for which the % Collagen Binding amounted to 0%.

Regarding GQWTC[dS]GDEYTWHCNYE (disulfide 5-14 (inferred)) [SEQ ID NO: 168], the % Collagen Binding turned out to be 2%.

On to GQWTCSGD[dE]YTWHCNYE (disulfide 5-14 (inferred)) [SEQ ID NO: 170], for which the % Collagen Binding turned out to be 35%.

As to B5, the % Collagen Binding was 8%.

GQWTCSADEYTWHCNYE (disulfide 5-14; not fully specified) [SEQ ID NO: 142] returned a % Collagen Binding of 6%.

For B6, the % Collagen Binding was 4%.

GQWTCSG[dD]EYTWHCNYE (disulfide 5-14 (inferred)) [SEQ ID NO: 169] displayed a % Collagen Binding of 4%.

B7 displayed a % Collagen Binding of 27%.

B8 gave a % Collagen Binding of 2%.

Molecule DWTCSSDEYTWHCNYE [SEQ ID NO: 180] yielded a % Collagen Binding of 72%.

GQW[dT]CSGDEYTWHCNYE (disulfide 5-14 (inferred)) [SEQ ID NO: 166] displayed a % Collagen Binding of 3%.

The target in a further experiment is human collagen type I (acid soluble, extracted from placenta, Sigma C7774) (human) (UniProt P02452). Kind of experiment: dried collagen assay.
Sequence of human collagen type I (acid soluble, extracted from placenta, Sigma C7774) (human) (P02452 162-1218 limits assumed, chain 1 of 2): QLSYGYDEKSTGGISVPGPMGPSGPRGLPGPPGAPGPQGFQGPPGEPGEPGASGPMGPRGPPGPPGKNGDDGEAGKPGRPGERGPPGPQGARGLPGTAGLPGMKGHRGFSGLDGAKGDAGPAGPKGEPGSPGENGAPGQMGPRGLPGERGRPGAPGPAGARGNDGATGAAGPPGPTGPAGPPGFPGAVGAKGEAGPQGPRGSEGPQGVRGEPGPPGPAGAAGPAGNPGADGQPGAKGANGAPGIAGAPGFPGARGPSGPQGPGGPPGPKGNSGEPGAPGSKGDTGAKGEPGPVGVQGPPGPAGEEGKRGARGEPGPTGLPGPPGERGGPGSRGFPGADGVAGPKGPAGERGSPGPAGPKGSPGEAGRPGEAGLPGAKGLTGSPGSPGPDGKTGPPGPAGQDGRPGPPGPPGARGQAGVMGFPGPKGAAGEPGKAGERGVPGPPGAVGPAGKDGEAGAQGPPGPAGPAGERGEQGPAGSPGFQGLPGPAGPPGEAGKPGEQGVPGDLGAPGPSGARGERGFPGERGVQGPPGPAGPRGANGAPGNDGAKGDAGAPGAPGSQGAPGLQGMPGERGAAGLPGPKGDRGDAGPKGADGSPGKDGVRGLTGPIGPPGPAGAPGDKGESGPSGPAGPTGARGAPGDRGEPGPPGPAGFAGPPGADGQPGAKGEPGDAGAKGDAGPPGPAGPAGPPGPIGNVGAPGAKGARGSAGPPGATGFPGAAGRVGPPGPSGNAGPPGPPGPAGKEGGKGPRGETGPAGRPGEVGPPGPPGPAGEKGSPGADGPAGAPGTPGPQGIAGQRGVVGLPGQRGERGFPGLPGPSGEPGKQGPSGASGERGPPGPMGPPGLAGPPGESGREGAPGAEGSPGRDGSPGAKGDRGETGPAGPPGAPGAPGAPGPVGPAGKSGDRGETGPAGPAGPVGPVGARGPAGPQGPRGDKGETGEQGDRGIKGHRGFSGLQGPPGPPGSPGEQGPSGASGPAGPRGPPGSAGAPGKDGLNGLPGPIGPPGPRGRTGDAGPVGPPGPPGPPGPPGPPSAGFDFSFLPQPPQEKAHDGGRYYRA
Sequence of human collagen type I (acid soluble, extracted from placenta, Sigma C7774) (human) (P08123 80-1119 limits assumed, chain 2 of 2, further chain): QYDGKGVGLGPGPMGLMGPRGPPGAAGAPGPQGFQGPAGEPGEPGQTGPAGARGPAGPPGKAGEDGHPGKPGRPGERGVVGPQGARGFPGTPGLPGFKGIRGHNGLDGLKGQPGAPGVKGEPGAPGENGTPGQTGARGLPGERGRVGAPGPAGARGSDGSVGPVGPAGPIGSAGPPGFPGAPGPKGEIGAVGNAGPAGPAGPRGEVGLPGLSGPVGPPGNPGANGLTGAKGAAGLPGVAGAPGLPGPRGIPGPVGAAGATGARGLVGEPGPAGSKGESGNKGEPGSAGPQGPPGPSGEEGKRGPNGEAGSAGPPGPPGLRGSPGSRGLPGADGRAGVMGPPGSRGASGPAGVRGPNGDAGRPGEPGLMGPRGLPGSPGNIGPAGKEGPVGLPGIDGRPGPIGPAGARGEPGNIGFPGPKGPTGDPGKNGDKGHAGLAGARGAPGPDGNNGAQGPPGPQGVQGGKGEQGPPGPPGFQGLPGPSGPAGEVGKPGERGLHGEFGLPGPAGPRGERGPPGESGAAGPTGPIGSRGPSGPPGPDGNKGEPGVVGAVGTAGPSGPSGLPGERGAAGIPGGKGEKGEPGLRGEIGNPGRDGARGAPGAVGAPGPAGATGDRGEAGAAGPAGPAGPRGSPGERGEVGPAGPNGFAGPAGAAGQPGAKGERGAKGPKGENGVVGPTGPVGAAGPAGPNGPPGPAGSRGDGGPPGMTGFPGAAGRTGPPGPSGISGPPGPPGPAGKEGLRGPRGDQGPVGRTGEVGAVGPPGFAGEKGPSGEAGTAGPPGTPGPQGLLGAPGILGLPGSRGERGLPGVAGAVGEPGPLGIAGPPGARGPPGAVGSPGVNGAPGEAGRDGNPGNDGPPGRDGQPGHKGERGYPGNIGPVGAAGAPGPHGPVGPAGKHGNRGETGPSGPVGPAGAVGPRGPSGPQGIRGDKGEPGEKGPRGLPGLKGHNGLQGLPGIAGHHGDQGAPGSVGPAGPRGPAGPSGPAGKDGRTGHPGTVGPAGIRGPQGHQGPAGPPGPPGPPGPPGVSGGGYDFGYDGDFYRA
GWSCHSMDMQWHCDFS (disulfide 4-13 (inferred); also: C-terminus likely amidated (Rink amide resin)) [SEQ ID NO: 67] returned a Dried Human Collagen Binding of 5%.

PWTCSGDEYAWHCNYE [SEQ ID NO: 121] showed a % Collagen Binding of 57%.

As to GQ[dW]TCSGDEYTWHCNYE (disulfide 5-14 (inferred)) [SEQ ID NO: 165], the % Collagen Binding stood at 2%.

With G[dQ]WTCSGDEYTWHCNYE (disulfide 5-14 (inferred)) [SEQ ID NO: 164], the % Collagen Binding was determined as 46%.

GQWT[dC]SGDEYTWHCNYE (disulfide 5-14 (inferred)) [SEQ ID NO: 167] displayed a % Collagen Binding of 4%.

PWWCHEMPSMCFGF (disulfide 4-11; also: C-terminus probably amidated (Rink amide resin)) [SEQ ID NO: 3] yielded a Dried Human Collagen Binding of 2%.

B1 came in with a % Collagen Binding of 13%.

For the molecule DWTCSGDEYAWHCNYE [SEQ ID NO: 120], the % Collagen Binding turned out to be 38%.

B2 yielded a % Collagen Binding of 2%.

Regarding GQWTCSGDEYAWHCNY[dE] (disulfide 5-14 (inferred)) [SEQ ID NO: 126], the % Collagen Binding was 68%.

The molecule GWTCSQPGANVWNCTMQ (disulfide 4-14; not fully specified (C-terminus)) [SEQ ID NO: 85] showed a Dried Human Collagen Binding of 3%.

GQWTCSGDEYSWHCNY[dE] (disulfide 5-14 (inferred)) [SEQ ID NO: 125] came in with a % Collagen Binding of 85%.

Turning to KWECVHTKGEWYCETK (disulfide 4-13 (inferred); also: C-terminus likely amidated (Rink amide resin)) [SEQ ID NO: 65], the Dried Human Collagen Binding is 7%.

Molecule DWTCSADEYTWHCNYE [SEQ ID NO: 179] displayed a % Collagen Binding of 81%.

As to B3, the % Collagen Binding was determined as 90%.

GQWTCSGDEY[dA]WHCNA[dE] (disulfide 5-14 (inferred)) [SEQ ID NO: 124]: the % Collagen Binding came to 24%.

The molecule LWTCSMDRNYDWVCGEK (disulfide 4-14; not fully specified (C-terminus)) [SEQ ID NO: 82] returned a Dried Human Collagen Binding of 3%.

With TWACDLDEYGGWQCYTG (disulfide 4-14 (inferred); also: C-terminal amide likely (Rink amide resin)) [SEQ ID NO: 78], the Dried Human Collagen Binding was 8%.

Molecule B4 registered a % Collagen Binding of 5%.

On to GQWTC[dS]GDEYTWHCNYE (disulfide 5-14 (inferred)) [SEQ ID NO: 168], for which the % Collagen Binding was 3%.

GQWTCSGD[dE]YTWHCNYE (disulfide 5-14 (inferred)) [SEQ ID NO: 170] displayed a % Collagen Binding of 49%.

In turn, B5 displayed a % Collagen Binding of 9%.

Consider TWICSHNDKGWTCGDQ (disulfide 4-13 (inferred); also: C-terminus likely amidated (Rink amide resin)) [SEQ ID NO: 64], for which the Dried Human Collagen Binding came to 8%.

TWMCVDPPLWRCWVQ (disulfide 4-12; also: C-terminus probably amidated (Rink amide resin)) [SEQ ID NO: 4] came in with a Dried Human Collagen Binding of 45%.

On to HWSCDLAMDNEWFCSTK (disulfide 4-14; not fully specified (C-terminus)) [SEQ ID NO: 84], for which the Dried Human Collagen Binding was 3%.

B6 returned a % Collagen Binding of 5%.

Take GQWTCSG[dD]EYTWHCNYE (disulfide 5-14 (inferred)) [SEQ ID NO: 169]: the % Collagen Binding came to 11%.

RWSCVLDADGWVCSDN (disulfide 4-13 (inferred); also: C-terminus likely amidated (Rink amide resin)) [SEQ ID NO: 66] yielded a Dried Human Collagen Binding of 6%.

In the case of QWFCEMDEYGKWNCGMM (disulfide 4-14; not fully specified (C-terminus)) [SEQ ID NO: 81], the Dried Human Collagen Binding turned out to be 3%.

On to B7, for which the % Collagen Binding was determined as 30%.

The molecule B8 gave a % Collagen Binding of 2%.

In the case of DWTCSSDEYTWHCNYE [SEQ ID NO: 180], the % Collagen Binding was 81%.

The molecule FWTCELDFRQSWYCYDK (disulfide 4-14 (inferred); not fully specified) [SEQ ID NO: 79] came in with a Dried Human Collagen Binding of 8%.

GWACNTTSKGDWECTNL (disulfide 4-14; not fully specified (C-terminus)) [SEQ ID NO: 83] showed a Dried Human Collagen Binding of 3%.

On to GQW[dT]CSGDEYTWHCNYE (disulfide 5-14 (inferred)) [SEQ ID NO: 166], for which the % Collagen Binding was determined as 2%.

SWHCFLENHHWMCSDH (disulfide 4-13 (inferred); also: C-terminus likely amidated (Rink amide resin)) [SEQ ID NO: 68] displayed a Dried Human Collagen Binding of 5%.
